Results published in article PMC7804308.

What was measured:
[1] = biological target: BG505 SOSIP.664 gp140 trimer (HIV); test: SPR
[2] = biological target: F84T Malay BanLec (Musa acuminata ssp. malaccensis); test: crystal structure; WT and F84T Malay BanLec each at 5 mg/mL in 10 mM HEPES pH 7.5, 150 mM NaCl; crystals grown at 20 °C from ammonium sulfate; dimers in the asymmetric unit
[3] = biological target: WT Malaysian banana lectin (Malay BanLec) (Musa acuminata ssp. malaccensis); test: as above

Substance “griffithsin (GRFT) (from UniProt P84801 1-121) (natural protein)” has a Kd [1] of 0.137 nM, a koff [1] of 0.00074 s⁻¹ and a kon [1] of 5.56e+06 M⁻¹ s⁻¹.

With F84T Malay BanLec (natural protein) the Kd [1] was 0.368 nM, the koff [1] was 0.000266 s⁻¹ and the kon [1] was 720000 M⁻¹ s⁻¹. The stoichiometry N [2] was 2.

“WT Malaysian banana lectin (Malay BanLec) (natural protein)” showed a Kd [1] of 0.122 nM, a koff [1] of 0.00014 s⁻¹ and a kon [1] of 1.33e+06 M⁻¹ s⁻¹. For the same substance, the stoichiometry N [3] was 2.
